Test results taken from PMC9482650, “Quantitative fragmentomics allow affinity mapping of interactomes” (Nature Communications, 2022).

T1: CARD11, Q9BXL7
T1 sequence (Q9BXL7 662-765, limits assumed, looked up): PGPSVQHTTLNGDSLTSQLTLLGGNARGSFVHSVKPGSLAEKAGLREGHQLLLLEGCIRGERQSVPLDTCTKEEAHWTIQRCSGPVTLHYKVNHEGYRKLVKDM

T2: MPP7, Q5T2T1
T2 sequence (Q5T2T1 134-230, limits assumed, looked up): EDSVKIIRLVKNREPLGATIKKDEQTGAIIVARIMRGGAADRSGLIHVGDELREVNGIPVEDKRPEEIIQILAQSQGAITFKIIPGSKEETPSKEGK

T3: NHERF3_4, Q5T2W1
T3 sequence (Q5T2W1 373-468, limits assumed, looked up): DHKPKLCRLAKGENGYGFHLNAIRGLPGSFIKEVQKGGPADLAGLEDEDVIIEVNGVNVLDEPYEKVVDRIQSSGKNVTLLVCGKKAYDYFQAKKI

T4: RADIL, Q96JH8
T4 sequence (Q96JH8 971-1071, limits assumed, looked up): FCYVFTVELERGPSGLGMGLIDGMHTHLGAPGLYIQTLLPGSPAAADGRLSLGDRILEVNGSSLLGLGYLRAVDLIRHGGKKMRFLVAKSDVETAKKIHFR

T5: ARHGAP21, Q5T5U3
T5 sequence (Q5T5U3 45-169, limits assumed, looked up): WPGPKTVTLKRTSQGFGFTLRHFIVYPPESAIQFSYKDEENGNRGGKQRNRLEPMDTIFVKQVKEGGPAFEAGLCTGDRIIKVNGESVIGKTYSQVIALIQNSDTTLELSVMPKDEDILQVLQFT

T6: APBA3_1, O96018
T6 sequence (O96018 389-490, limits assumed, looked up): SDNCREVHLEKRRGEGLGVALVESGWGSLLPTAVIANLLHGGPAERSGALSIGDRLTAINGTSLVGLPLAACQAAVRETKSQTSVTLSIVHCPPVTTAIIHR

T7: MPDZ_10, O75970
T7 sequence (O75970 1624-1722, limits assumed, looked up): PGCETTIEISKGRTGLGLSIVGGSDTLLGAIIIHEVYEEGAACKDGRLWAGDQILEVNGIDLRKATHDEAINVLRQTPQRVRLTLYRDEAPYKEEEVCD

T8: DVL3, Q92997
T8 sequence (Q92997 244-331, limits assumed, looked up): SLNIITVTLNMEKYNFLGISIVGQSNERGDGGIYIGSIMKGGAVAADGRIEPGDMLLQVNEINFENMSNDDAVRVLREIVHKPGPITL


Target: Inadl_10, Q8NI35
Assay: holdup assay
Design: key: below the threshold = too weak to quantify, mostly under pKd 3.1 to 4
Conditions: plain residues with an end cap or a label only (N-terminal biotin on a linker: ado-ado)

Chain of Inadl_10, Q8NI35 (Q8NI35 1673-1763): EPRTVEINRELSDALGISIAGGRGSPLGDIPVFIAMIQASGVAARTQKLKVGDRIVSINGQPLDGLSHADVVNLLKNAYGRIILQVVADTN

Binder | pKd
AEDEEIQTKM [UNC93A, Q86WB7] | below the threshold
SVISRREWYV [NECTIN3, Q9NQS3] | below the threshold

Target: T1, CARD11, Q9BXL7
Assay: holdup assay
Design: key: below the threshold = too weak to quantify, mostly under pKd 3.1 to 4
Conditions: plain residues with an end cap or a label only (N-terminal biotin on a linker: ado-ado)

Binder | pKd
AEDEEIQTKM [UNC93A, Q86WB7] | below the threshold
SVISRREWYV [NECTIN3, Q9NQS3] | below the threshold

Target: T2, MPP7, Q5T2T1
Assay: holdup assay
Design: key: below the threshold = too weak to quantify, mostly under pKd 3.1 to 4
Conditions: plain residues with an end cap or a label only (N-terminal biotin on a linker: ado-ado)

Binder | pKd
AEDEEIQTKM [UNC93A, Q86WB7] | below the threshold
SVISRREWYV [NECTIN3, Q9NQS3] | 4.93

Target: FRMPD4, Q14CM0
Assay: holdup assay
Design: key: below the threshold = too weak to quantify, mostly under pKd 3.1 to 4
Conditions: plain residues with an end cap or a label only (N-terminal biotin on a linker: ado-ado)

Chain of FRMPD4, Q14CM0 (Q14CM0 67-160): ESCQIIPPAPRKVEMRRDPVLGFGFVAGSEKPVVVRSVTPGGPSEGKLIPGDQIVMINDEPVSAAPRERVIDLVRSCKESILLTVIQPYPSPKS

Binder | pKd
AEDEEIQTKM [UNC93A, Q86WB7] | 3.63
SVISRREWYV [NECTIN3, Q9NQS3] | 3.97

Target: Inadl_6, Q8NI35
Assay: holdup assay
Design: key: below the threshold = too weak to quantify, mostly under pKd 3.1 to 4
Conditions: plain residues with an end cap or a label only (N-terminal biotin on a linker: ado-ado)

Chain of Inadl_6, Q8NI35 (Q8NI35 1058-1167): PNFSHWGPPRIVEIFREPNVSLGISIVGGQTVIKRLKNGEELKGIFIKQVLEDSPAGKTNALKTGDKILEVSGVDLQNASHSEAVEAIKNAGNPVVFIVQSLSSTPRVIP

Binder | pKd
AEDEEIQTKM [UNC93A, Q86WB7] | below the threshold
SVISRREWYV [NECTIN3, Q9NQS3] | below the threshold

Target: MAGI2_4, Q86UL8
Assay: holdup assay
Design: key: below the threshold = too weak to quantify, mostly under pKd 3.1 to 4
Conditions: plain residues with an end cap or a label only (N-terminal biotin on a linker: ado-ado)

Chain of MAGI2_4, Q86UL8 (Q86UL8 772-865): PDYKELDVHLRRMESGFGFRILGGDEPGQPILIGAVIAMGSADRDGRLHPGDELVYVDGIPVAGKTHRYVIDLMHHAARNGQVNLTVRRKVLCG

Binder | pKd
AEDEEIQTKM [UNC93A, Q86WB7] | below the threshold
SVISRREWYV [NECTIN3, Q9NQS3] | 4.11

Target: T3, NHERF3_4, Q5T2W1
Assay: holdup assay
Design: key: below the threshold = too weak to quantify, mostly under pKd 3.1 to 4
Conditions: plain residues with an end cap or a label only (N-terminal biotin on a linker: ado-ado)

Binder | pKd
AEDEEIQTKM [UNC93A, Q86WB7] | 4.52
SVISRREWYV [NECTIN3, Q9NQS3] | below the threshold

Target: PTPN3, P26045
Assay: holdup assay
Design: key: below the threshold = too weak to quantify, mostly under pKd 3.1 to 4
Conditions: plain residues with an end cap or a label only (N-terminal biotin on a linker: ado-ado)

Chain of PTPN3, P26045 (P26045 505-587): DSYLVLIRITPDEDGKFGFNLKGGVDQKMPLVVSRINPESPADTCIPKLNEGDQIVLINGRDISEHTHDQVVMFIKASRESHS

Binder | pKd
AEDEEIQTKM [UNC93A, Q86WB7] | 4.17
SVISRREWYV [NECTIN3, Q9NQS3] | 4.25

Target: Inadl_9, Q8NI35
Assay: holdup assay
Design: key: below the threshold = too weak to quantify, mostly under pKd 3.1 to 4
Conditions: plain residues with an end cap or a label only (N-terminal biotin on a linker: ado-ado)

Chain of Inadl_9, Q8NI35 (Q8NI35 1530-1615): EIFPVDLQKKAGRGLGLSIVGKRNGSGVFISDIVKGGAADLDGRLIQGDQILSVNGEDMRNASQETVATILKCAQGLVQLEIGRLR

Binder | pKd
AEDEEIQTKM [UNC93A, Q86WB7] | below the threshold
SVISRREWYV [NECTIN3, Q9NQS3] | 4.51

Target: FRMPD2_3, Q68DX3
Assay: holdup assay
Design: key: below the threshold = too weak to quantify, mostly under pKd 3.1 to 4
Conditions: plain residues with an end cap or a label only (N-terminal biotin on a linker: ado-ado)

Chain of FRMPD2_3, Q68DX3 (Q68DX3 1073-1166): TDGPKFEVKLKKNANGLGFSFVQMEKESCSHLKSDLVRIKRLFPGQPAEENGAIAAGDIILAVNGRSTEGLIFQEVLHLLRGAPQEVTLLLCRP

Binder | pKd
AEDEEIQTKM [UNC93A, Q86WB7] | below the threshold
SVISRREWYV [NECTIN3, Q9NQS3] | 4.44

Target: T4, RADIL, Q96JH8
Assay: holdup assay
Design: key: below the threshold = too weak to quantify, mostly under pKd 3.1 to 4
Conditions: plain residues with an end cap or a label only (N-terminal biotin on a linker: ado-ado)

Binder | pKd
AEDEEIQTKM [UNC93A, Q86WB7] | below the threshold
SVISRREWYV [NECTIN3, Q9NQS3] | 5.27

Target: MAGI2_2, Q86UL8
Assay: holdup assay
Design: key: below the threshold = too weak to quantify, mostly under pKd 3.1 to 4
Conditions: plain residues with an end cap or a label only (N-terminal biotin on a linker: ado-ado)

Chain of MAGI2_2, Q86UL8 (Q86UL8 410-522): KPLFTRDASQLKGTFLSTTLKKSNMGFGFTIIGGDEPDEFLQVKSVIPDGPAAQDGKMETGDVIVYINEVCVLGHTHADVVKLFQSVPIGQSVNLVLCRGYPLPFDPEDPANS

Binder | pKd
AEDEEIQTKM [UNC93A, Q86WB7] | below the threshold
SVISRREWYV [NECTIN3, Q9NQS3] | 5.35

Target: T5, ARHGAP21, Q5T5U3
Assay: holdup assay
Design: key: below the threshold = too weak to quantify, mostly under pKd 3.1 to 4
Conditions: plain residues with an end cap or a label only (N-terminal biotin on a linker: ado-ado)

Binder | pKd
AEDEEIQTKM [UNC93A, Q86WB7] | 3.9
SVISRREWYV [NECTIN3, Q9NQS3] | 4.29

Target: MAGI1_1, Q96QZ7
Assay: holdup assay
Design: key: below the threshold = too weak to quantify, mostly under pKd 3.1 to 4
Conditions: plain residues with an end cap or a label only (N-terminal biotin on a linker: ado-ado)

Chain of MAGI1_1, Q96QZ7 (Q96QZ7 1-106): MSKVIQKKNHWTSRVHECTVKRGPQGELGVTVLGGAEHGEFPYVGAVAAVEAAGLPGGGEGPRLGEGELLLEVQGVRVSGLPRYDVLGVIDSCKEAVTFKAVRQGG

Binder | pKd
AEDEEIQTKM [UNC93A, Q86WB7] | below the threshold
SVISRREWYV [NECTIN3, Q9NQS3] | below the threshold

Target: SCRIB_3, Q14160
Assay: holdup assay
Design: key: below the threshold = too weak to quantify, mostly under pKd 3.1 to 4
Conditions: plain residues with an end cap or a label only (N-terminal biotin on a linker: ado-ado)

Chain of SCRIB_3, Q14160 (Q14160 999-1103): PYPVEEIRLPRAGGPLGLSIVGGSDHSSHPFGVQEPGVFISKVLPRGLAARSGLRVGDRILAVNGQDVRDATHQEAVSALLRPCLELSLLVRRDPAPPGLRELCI

Binder | pKd
AEDEEIQTKM [UNC93A, Q86WB7] | below the threshold
SVISRREWYV [NECTIN3, Q9NQS3] | 3.72

Target: MAGI3_2, Q5TCQ9
Assay: holdup assay
Design: key: below the threshold = too weak to quantify, mostly under pKd 3.1 to 4
Conditions: plain residues with an end cap or a label only (N-terminal biotin on a linker: ado-ado)

Chain of MAGI3_2, Q5TCQ9 (Q5TCQ9 398-503): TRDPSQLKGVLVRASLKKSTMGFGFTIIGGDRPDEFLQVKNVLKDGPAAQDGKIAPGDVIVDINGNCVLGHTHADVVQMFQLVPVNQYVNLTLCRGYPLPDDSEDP

Binder | pKd
AEDEEIQTKM [UNC93A, Q86WB7] | below the threshold
SVISRREWYV [NECTIN3, Q9NQS3] | 5.74

Target: ARHGEF12, Q9NZN5-2
Assay: holdup assay
Design: key: below the threshold = too weak to quantify, mostly under pKd 3.1 to 4
Conditions: plain residues with an end cap or a label only (N-terminal biotin on a linker: ado-ado)

Chain of ARHGEF12, Q9NZN5-2 (Q9NZN5 other isoform, or with tags, fused parts or gaps): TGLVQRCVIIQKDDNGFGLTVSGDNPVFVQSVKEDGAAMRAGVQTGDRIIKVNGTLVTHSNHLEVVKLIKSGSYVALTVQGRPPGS

Binder | pKd
AEDEEIQTKM [UNC93A, Q86WB7] | below the threshold
SVISRREWYV [NECTIN3, Q9NQS3] | 3.64

Target: NOS1, P29475
Assay: holdup assay
Design: key: below the threshold = too weak to quantify, mostly under pKd 3.1 to 4
Conditions: plain residues with an end cap or a label only (N-terminal biotin on a linker: ado-ado)

Chain of NOS1, P29475 (P29475 9-101): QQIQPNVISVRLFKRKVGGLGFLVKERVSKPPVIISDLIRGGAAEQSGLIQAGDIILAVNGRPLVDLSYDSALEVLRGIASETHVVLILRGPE

Binder | pKd
AEDEEIQTKM [UNC93A, Q86WB7] | below the threshold
SVISRREWYV [NECTIN3, Q9NQS3] | 4.04

Target: T6, APBA3_1, O96018
Assay: holdup assay
Design: key: below the threshold = too weak to quantify, mostly under pKd 3.1 to 4
Conditions: plain residues with an end cap or a label only (N-terminal biotin on a linker: ado-ado)

Binder | pKd
AEDEEIQTKM [UNC93A, Q86WB7] | below the threshold
SVISRREWYV [NECTIN3, Q9NQS3] | below the threshold

Target: MAGI2_3, Q86UL8
Assay: holdup assay
Design: key: below the threshold = too weak to quantify, mostly under pKd 3.1 to 4
Conditions: plain residues with an end cap or a label only (N-terminal biotin on a linker: ado-ado)

Chain of MAGI2_3, Q86UL8 (Q86UL8 600-682): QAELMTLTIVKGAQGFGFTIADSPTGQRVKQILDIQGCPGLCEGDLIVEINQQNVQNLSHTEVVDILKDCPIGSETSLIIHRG

Binder | pKd
AEDEEIQTKM [UNC93A, Q86WB7] | below the threshold
SVISRREWYV [NECTIN3, Q9NQS3] | below the threshold

Target: GRIP2_5, Q9C0E4
Assay: holdup assay
Design: key: below the threshold = too weak to quantify, mostly under pKd 3.1 to 4
Conditions: plain residues with an end cap or a label only (N-terminal biotin on a linker: ado-ado)

Chain of GRIP2_5, Q9C0E4 (Q9C0E4 544-642): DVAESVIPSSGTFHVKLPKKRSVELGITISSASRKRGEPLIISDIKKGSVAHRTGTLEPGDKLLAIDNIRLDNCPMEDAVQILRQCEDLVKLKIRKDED

Binder | pKd
AEDEEIQTKM [UNC93A, Q86WB7] | below the threshold
SVISRREWYV [NECTIN3, Q9NQS3] | below the threshold

Target: LNX1_2, Q8TBB1
Assay: holdup assay
Design: key: below the threshold = too weak to quantify, mostly under pKd 3.1 to 4
Conditions: plain residues with an end cap or a label only (N-terminal biotin on a linker: ado-ado)

Chain of LNX1_2, Q8TBB1 (Q8TBB1 371-470): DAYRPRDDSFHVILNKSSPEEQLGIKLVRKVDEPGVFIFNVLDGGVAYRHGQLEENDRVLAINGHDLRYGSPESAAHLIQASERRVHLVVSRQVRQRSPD

Binder | pKd
AEDEEIQTKM [UNC93A, Q86WB7] | below the threshold
SVISRREWYV [NECTIN3, Q9NQS3] | 4.59

Target: T7, MPDZ_10, O75970
Assay: holdup assay
Design: key: below the threshold = too weak to quantify, mostly under pKd 3.1 to 4
Conditions: plain residues with an end cap or a label only (N-terminal biotin on a linker: ado-ado)

Binder | pKd
AEDEEIQTKM [UNC93A, Q86WB7] | below the threshold
SVISRREWYV [NECTIN3, Q9NQS3] | below the threshold

Target: GORASP1, Q9BQQ3
Assay: holdup assay
Design: key: below the threshold = too weak to quantify, mostly under pKd 3.1 to 4
Conditions: plain residues with an end cap or a label only (N-terminal biotin on a linker: ado-ado)

Chain of GORASP1, Q9BQQ3 (Q9BQQ3 1-208): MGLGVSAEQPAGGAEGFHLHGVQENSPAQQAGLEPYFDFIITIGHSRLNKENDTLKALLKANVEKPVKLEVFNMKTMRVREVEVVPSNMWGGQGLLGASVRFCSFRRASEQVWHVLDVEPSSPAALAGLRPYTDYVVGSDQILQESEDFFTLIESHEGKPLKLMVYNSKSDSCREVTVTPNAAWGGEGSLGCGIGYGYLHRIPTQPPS

Binder | pKd
AEDEEIQTKM [UNC93A, Q86WB7] | below the threshold
SVISRREWYV [NECTIN3, Q9NQS3] | 4.63

Target: DLG2_2, Q15700
Assay: holdup assay
Design: key: below the threshold = too weak to quantify, mostly under pKd 3.1 to 4
Conditions: plain residues with an end cap or a label only (N-terminal biotin on a linker: ado-ado)

Chain of DLG2_2, Q15700 (Q15700 189-283): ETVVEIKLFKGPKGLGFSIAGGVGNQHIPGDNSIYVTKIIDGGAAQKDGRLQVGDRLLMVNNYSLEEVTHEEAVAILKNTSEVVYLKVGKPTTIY

Binder | pKd
AEDEEIQTKM [UNC93A, Q86WB7] | below the threshold
SVISRREWYV [NECTIN3, Q9NQS3] | 3.49

Target: LNX1_1, Q8TBB1
Assay: holdup assay
Design: key: below the threshold = too weak to quantify, mostly under pKd 3.1 to 4
Conditions: plain residues with an end cap or a label only (N-terminal biotin on a linker: ado-ado)

Chain of LNX1_1, Q8TBB1 (Q8TBB1 261-371): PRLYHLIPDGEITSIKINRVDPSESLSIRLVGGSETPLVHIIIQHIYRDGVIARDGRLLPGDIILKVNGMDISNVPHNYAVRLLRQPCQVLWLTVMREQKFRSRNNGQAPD

Binder | pKd
AEDEEIQTKM [UNC93A, Q86WB7] | below the threshold
SVISRREWYV [NECTIN3, Q9NQS3] | below the threshold

Target: DLG4_1, P78352
Assay: holdup assay
Design: key: below the threshold = too weak to quantify, mostly under pKd 3.1 to 4
Conditions: plain residues with an end cap or a label only (N-terminal biotin on a linker: ado-ado)

Chain of DLG4_1, P78352 (P78352 62-152): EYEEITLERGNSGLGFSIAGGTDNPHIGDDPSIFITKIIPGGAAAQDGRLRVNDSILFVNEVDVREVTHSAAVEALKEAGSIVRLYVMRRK

Binder | pKd
AEDEEIQTKM [UNC93A, Q86WB7] | below the threshold
SVISRREWYV [NECTIN3, Q9NQS3] | below the threshold

Target: PDZRN4_1, Q6ZMN7
Assay: holdup assay
Design: key: below the threshold = too weak to quantify, mostly under pKd 3.1 to 4
Conditions: plain residues with an end cap or a label only (N-terminal biotin on a linker: ado-ado)

Chain of PDZRN4_1, Q6ZMN7 (Q6ZMN7 213-318): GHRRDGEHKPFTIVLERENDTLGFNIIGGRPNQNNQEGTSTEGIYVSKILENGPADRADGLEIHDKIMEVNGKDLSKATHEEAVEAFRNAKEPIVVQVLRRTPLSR

Binder | pKd
AEDEEIQTKM [UNC93A, Q86WB7] | below the threshold
SVISRREWYV [NECTIN3, Q9NQS3] | below the threshold

Target: LDB3, O75112
Assay: holdup assay
Design: key: below the threshold = too weak to quantify, mostly under pKd 3.1 to 4
Conditions: plain residues with an end cap or a label only (N-terminal biotin on a linker: ado-ado)

Chain of LDB3, O75112 (O75112 1-94): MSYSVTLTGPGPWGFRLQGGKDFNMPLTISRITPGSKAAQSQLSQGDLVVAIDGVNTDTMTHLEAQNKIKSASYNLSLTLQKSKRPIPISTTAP

Binder | pKd
AEDEEIQTKM [UNC93A, Q86WB7] | below the threshold
SVISRREWYV [NECTIN3, Q9NQS3] | below the threshold

Target: T8, DVL3, Q92997
Assay: holdup assay
Design: key: below the threshold = too weak to quantify, mostly under pKd 3.1 to 4
Conditions: plain residues with an end cap or a label only (N-terminal biotin on a linker: ado-ado)

Binder | pKd
AEDEEIQTKM [UNC93A, Q86WB7] | below the threshold
SVISRREWYV [NECTIN3, Q9NQS3] | 4.69
